The IC50 is the concentration that inhibits the measured activity by half.

Data on 24 molecules can be found in US6596687B1, “Cell adhesion inhibitors” (Biogen, Inc., priority 1995, dated 2003).

B1: Compound 343 (peptide)
peptide: H-[dP][dV][dD][dL]-{2‑MPUB}
modifications: reading uncertain
B2: Compound 338 (peptide)
peptide: LDVPST
HELM: PEPTIDE1{[Cc1ccccc1NC(=O)Nc1ccc(CC(=O)[*:2])cc1].L.D.V.P.S.T}$$$$V2.0
SMILES: Cc1ccccc1NC(=O)Nc1ccc(CC(=O)N[C@@H](CC(C)C)C(=O)N[C@@H](CC(=O)O)C(=O)N[C@H](C(=O)N2CCC[C@H]2C(=O)N[C@@H](CO)C(=O)N[C@H](C(=O)O)[C@@H](C)O)C(C)C)cc1
B3: Compound 341 (peptide)
peptide: LPVD
HELM: PEPTIDE1{[Cc1ccccc1NC(=O)Nc1ccc(CC(=O)[*:2])cc1].L.P.V.D}$$$$V2.0
SMILES: Cc1ccccc1NC(=O)Nc1ccc(CC(=O)N[C@@H](CC(C)C)C(=O)N2CCC[C@H]2C(=O)N[C@H](C(=O)N[C@@H](CC(=O)O)C(=O)O)C(C)C)cc1
B4: Compound 153 (peptide)
peptide: FLDV
HELM: PEPTIDE1{[O=C(c1ccccc1)[*:2]].F.L.D.V}$$$$V2.0
SMILES: CC(C)C[C@H](NC(=O)[C@H](Cc1ccccc1)NC(=O)c1ccccc1)C(=O)N[C@@H](CC(=O)O)C(=O)N[C@H](C(=O)O)C(C)C
B5: Compound 339 (peptide)
peptide: VLPD
HELM: PEPTIDE1{[Cc1ccccc1NC(=O)Nc1ccc(CC(=O)[*:2])cc1].V.L.P.D}$$$$V2.0
SMILES: Cc1ccccc1NC(=O)Nc1ccc(CC(=O)N[C@H](C(=O)N[C@@H](CC(C)C)C(=O)N2CCC[C@H]2C(=O)N[C@@H](CC(=O)O)C(=O)O)C(C)C)cc1
B6: Compound 337 (peptide)
peptide: {2‑MPUPA}-LDVPS-OH
B7: Compound 152 (peptide)
peptide: Ac-FLDV-OH
B8: Compound 2 (peptide)
peptide: {3‑methoxy‑4‑(N'-phenylurea)phenylacetyl}-MDVP-OH
B9: Compound 202 (peptide)
peptide: {2‑MPUPA}-K(Ahx)DVP-OH
B10: Compound 168 (peptide)
peptide: LDVM
HELM: PEPTIDE1{[O=C(c1ccc2ccccc2n1)[*:2]].L.D.V.M.[CO[*:1]]}$$$$V2.0
SMILES: COC(=O)[C@H](CCSC)NC(=O)[C@@H](NC(=O)[C@H](CC(=O)O)NC(=O)[C@H](CC(C)C)NC(=O)c1ccc2ccccc2n1)C(C)C
B11: Compound 146 (peptide)
peptide: {4‑(N'-2-hydroxyphenylurea)phenylacetyl}-MDVP-OH
B12: Compound 186 (peptide)
peptide: LDVM
HELM: PEPTIDE1{[O=C(c1ccc2ccccc2n1)[*:2]].L.D.V.M}$$$$V2.0
SMILES: CSCC[C@H](NC(=O)[C@@H](NC(=O)[C@H](CC(=O)O)NC(=O)[C@H](CC(C)C)NC(=O)c1ccc2ccccc2n1)C(C)C)C(=O)O
B13: Compound 167 (peptide)
peptide: LDVM
HELM: PEPTIDE1{[CC(C)(C)OC(=O)[*:2]].L.D.V.M.[CO[*:1]]}$$$$V2.0
SMILES: COC(=O)[C@H](CCSC)NC(=O)[C@@H](NC(=O)[C@H](CC(=O)O)NC(=O)[C@H](CC(C)C)NC(=O)OC(C)(C)C)C(C)C
B14: Compound 315 (peptide)
peptide: MDVP
HELM: PEPTIDE1{[Cc1ccccc1NC(=O)Nc1ccc(CC(=O)[*:2])cc1].M.D.V.P}$$$$V2.0
SMILES: CSCC[C@H](NC(=O)Cc1ccc(NC(=O)Nc2ccccc2C)cc1)C(=O)N[C@@H](CC(=O)O)C(=O)N[C@H](C(=O)N1CCC[C@H]1C(=O)O)C(C)C

Numbered stars: 1 amine (or outer) side, 2 acyl side, 3 side chain; on linkers, the order of the positions; unused ones are H or OH. Square brackets hold non-standard residues; d marks the D form. Peptide text beside a SMILES is read from it. * marks the point of attachment. 2‑MPUPA = 4-(N′-(2-methylphenyl)urea)phenylacetyl, Cc1ccccc1NC(=O)Nc1ccc(CC(=O)*)cc1; X2 = O=C(Cc1ccc(N[*:1])cc1)[*:2]; 2‑MPUB = not defined here; CO = O=C([*:1])[*:2]; Bz = O=C(c1ccccc1)*; NHPh = c1ccc(N*)cc1; Ahx = NCCCCCC(=O)O

T2 sequence (P13612 34-1032 limits assumed, chain 1 of 2): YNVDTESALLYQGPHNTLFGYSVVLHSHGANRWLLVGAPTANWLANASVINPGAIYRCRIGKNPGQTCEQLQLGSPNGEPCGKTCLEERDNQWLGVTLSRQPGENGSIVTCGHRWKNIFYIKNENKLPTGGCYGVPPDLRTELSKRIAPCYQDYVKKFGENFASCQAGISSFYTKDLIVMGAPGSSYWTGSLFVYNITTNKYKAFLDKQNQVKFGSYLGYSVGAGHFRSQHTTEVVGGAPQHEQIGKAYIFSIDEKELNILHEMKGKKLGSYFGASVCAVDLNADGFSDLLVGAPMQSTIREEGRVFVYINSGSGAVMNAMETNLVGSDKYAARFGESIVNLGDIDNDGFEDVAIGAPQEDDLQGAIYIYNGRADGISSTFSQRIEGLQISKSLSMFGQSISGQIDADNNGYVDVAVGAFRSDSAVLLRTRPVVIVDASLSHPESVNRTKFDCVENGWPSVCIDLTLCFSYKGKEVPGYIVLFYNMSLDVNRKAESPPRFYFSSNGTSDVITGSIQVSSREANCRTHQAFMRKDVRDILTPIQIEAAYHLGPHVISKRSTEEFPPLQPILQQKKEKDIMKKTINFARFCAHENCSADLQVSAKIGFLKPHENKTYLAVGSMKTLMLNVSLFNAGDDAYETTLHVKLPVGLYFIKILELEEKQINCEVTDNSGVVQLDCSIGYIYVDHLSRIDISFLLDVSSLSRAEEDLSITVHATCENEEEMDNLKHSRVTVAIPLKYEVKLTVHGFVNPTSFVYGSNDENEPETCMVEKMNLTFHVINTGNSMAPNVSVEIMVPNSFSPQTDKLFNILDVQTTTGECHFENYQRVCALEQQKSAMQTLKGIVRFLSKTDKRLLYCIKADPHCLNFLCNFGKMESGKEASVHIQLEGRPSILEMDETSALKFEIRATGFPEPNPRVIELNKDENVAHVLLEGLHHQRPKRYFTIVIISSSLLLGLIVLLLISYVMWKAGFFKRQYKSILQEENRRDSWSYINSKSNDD
T2 sequence (P05556 21-798 limits assumed, chain 2 of 2): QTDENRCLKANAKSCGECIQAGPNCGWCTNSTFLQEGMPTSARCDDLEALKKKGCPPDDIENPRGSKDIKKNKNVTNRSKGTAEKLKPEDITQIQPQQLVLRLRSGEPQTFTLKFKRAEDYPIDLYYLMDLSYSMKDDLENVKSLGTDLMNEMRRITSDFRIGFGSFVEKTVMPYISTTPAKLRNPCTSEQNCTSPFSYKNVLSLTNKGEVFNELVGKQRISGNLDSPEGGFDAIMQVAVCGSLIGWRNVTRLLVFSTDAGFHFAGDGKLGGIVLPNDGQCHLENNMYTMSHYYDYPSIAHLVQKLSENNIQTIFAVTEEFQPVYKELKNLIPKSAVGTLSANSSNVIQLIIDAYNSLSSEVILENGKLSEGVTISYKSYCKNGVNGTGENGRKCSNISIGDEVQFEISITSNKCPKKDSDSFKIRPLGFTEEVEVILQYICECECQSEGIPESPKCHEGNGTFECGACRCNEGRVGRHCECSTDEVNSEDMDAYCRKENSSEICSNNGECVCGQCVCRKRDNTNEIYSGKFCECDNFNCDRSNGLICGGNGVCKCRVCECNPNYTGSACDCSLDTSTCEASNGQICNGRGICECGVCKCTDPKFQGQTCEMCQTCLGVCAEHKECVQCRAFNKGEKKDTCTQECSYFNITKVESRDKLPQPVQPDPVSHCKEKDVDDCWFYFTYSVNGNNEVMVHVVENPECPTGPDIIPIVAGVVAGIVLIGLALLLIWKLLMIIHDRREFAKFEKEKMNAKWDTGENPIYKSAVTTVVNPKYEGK
VLA-4 (alpha4beta1 integrin) (UniProt P13612), sequence (P13612 34-1032 limits assumed, chain 1 of 2): as the sequence (P13612 34-1032 limits assumed, chain 1 of 2) above
VLA-4 (alpha4beta1 integrin) (UniProt P13612), sequence (P05556 21-798 limits assumed, chain 2 of 2, further chain): as the sequence (P05556 21-798 limits assumed, chain 2 of 2) above

One assay has as its target VLA-4 (alpha4beta1 integrin) (UniProt P13612). The assay is described as follows: Ramos/BSA-CS1 adhesion inhibition.
Conditions: not given
Regarding B1, the IC50 was greater than 10 µM.

In another assay the target is T1, VLA4 (Homo sapiens, UniProt P05556+P13612).
T1 construct: endogenous in cells; host or cells: Ramos cells
T1 sequence (P13612 34-1032): as the sequence (P13612 34-1032 limits assumed, chain 1 of 2) above
T1 sequence (P05556 21-798): as the sequence (P05556 21-798 limits assumed, chain 2 of 2) above
The assay is described as follows: Inhibition of VLA4-dependent adhesion of Ramos cells to BSA-CS1. Format: cell-based. The note with it: Ramos cells, BSA-CS1 coated wells, 2 mM MnCl2, 30 minutes at room temperature; read-out: IC50. Summed up:
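BCECF-AM-labelled Ramos cells in Tris buffer pH 7.4 with 2 mM MnCl2 were added with compound to wells coated with BSA-conjugated Cys-Tyr-CS1 peptide (1 μg/mL). Cells and compound were incubated for 30 min at room temperature, in triplicate. Inhibition was quantified from bound fluorescence against no-compound controls, with uncoated wells used for nonspecific binding.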
As to `CC(C)C[C@H](NC(=O)Cc1ccc(NC(=O)Nc2ccccc2)cc1)C(=O)N[C@@H](CC(=O)O)C(=O)N[C@H](C(=O)N1CCC[C@H]1C(=O)O)C(C)C` [Compound 145] ({NHPh-CO}-[X2]LDVP-OH), the IC50 was less than 0.05 µM.
Consider `CC(C)C[C@H](NC(=O)CC(c1ccccc1)c1ccccc1)C(=O)N[C@@H](CC(=O)O)C(=O)N[C@H](C(=O)O)C(C)C` [Compound 95], for which the IC50 is greater than 10 µM.
For the molecule `COC(=O)C[C@H](NC(=O)CNC(=O)c1ccccc1)C(=O)N[C@H](C(=O)OC)C(C)C` [Compound 173] (Bz-Gly-Asp(OMe)-Val-OMe), the IC50 is greater than 10 µM.
For `CC(C)C[C@H](NC(=O)Cc1ccccc1)C(=O)N[C@@H](CC(=O)O)C(=O)N[C@H](C(=O)N1CCC[C@H]1C(=O)O)C(C)C` [Compound 34], the IC50 is 0.05 to 10 µM.
As for `CC(C)C[C@H](NC(=O)c1ccccn1)C(=O)N[C@@H](CC(=O)O)C(=O)N[C@H](C(=O)O)C(C)C` [Compound 77], the IC50 is greater than 10 µM.
As for `CC(C)C[C@H](NC(=O)CCCCc1ccccc1)C(=O)N[C@@H](CC(=O)O)C(=O)N[C@H](C(=O)O)C(C)C` [Compound 98], the IC50 was greater than 10 µM.
As for `CC(C)C[C@H](NC(=O)Cc1ccc(NC(=O)Nc2ccccc2)cc1)C(=O)N[C@@H](CC(=O)O)C(=O)NCc1ccccc1` [Compound 213], the IC50 was in the range of 0.05 to 10 µM.
As to `CC(C)C[C@H](NC(=O)[C@H](CC(=O)O)NC(=O)[C@H](CC(C)C)NC(=O)C1Cc2ccccc2CN1)C(=O)O` (stereo partly drawn) [Compound 90] (HELM PEPTIDE1{[O=C(C1Cc2ccccc2CN1)[*:2]].L.D.L}$$$$V2.0), the IC50 was greater than 10 µM.
Consider `CC(C)C[C@H](NC(=O)C1Cc2ccccc2CN1)C(=O)N[C@@H](CC(=O)O)C(=O)O` (stereo partly drawn) [Compound 23] (HELM PEPTIDE1{[O=C(C1Cc2ccccc2CN1)[*:2]].L.D}$$$$V2.0), for which the half-inhibitory concentration (IC50) is greater than 10 µM.
Regarding `CC(C)C[C@H](NC(=O)CCCCCc1ccccc1)C(=O)N[C@@H](CC(=O)O)C(=O)N[C@H](C(=O)O)C(C)C` [Compound 104], the IC50 is greater than 10 µM.

A further assay concerns the target T2, VLA-4 (alpha4beta1 integrin) (UniProt P13612 34-1032; P05556 21-798, limits assumed).
T2 construct: whole, on cells; also called very late antigen-4; CD49d/CD29
The assay is described as follows: Ramos/BSA-CS1 adhesion inhibition.
Conditions: not given
On the procedure:
Following labelling, the cells were washed twice in assay buffer (24 mM TRIS, 137 mM NaCl, 2.7 mM KCl, pH 7.4, containing 0.1 BSA and 2mM glucose) to remove any cations originating from the culture medium. The cells were then resuspended in assay buffer to 4 ×10^6 cells/mL and 2 mM MnCl_2 was added to upregulate VLA4 on the surface of the cells.
Immediately prior to running the assay, we removed the BSA blocking solution from the 96-well plates and washed the wells with 100 μL of assay buffer. We then added to each well 25 μL of test cell adhesion inhibitory compound at 2×the final concentration and 25 μL of the labelled Ramos cells. […] Each concentration of compound was tested in triplicate. The compound and cells are allowed to incubate for 30 minutes at room temperature.
Percent binding is calculated by the formula: […]
Consider B2, for which the IC50 is less than 0.05 µM.
Turning to B3, the IC50 is greater than 10 µM.
B4: the IC50 was greater than 10 µM.
The same measure, in the same setting: in the case of B5 it was greater than 10 µM; in that of B6, less than 0.05 µM; in that of B7, greater than 10 µM.
For the molecule B8, the IC50 is less than 0.05 µM.
As for B9, the IC50 lay in the range of 0.05 to 10 µM.
Still for that read-out and setting: in the case of B10 it was 0.05 to 10 µM; in that of B11, less than 0.05 µM.
On to B12, for which the IC50 is greater than 10 µM.
On the same count and under the same terms, in the case of B13 it was greater than 10 µM; in that of B14, less than 0.05 µM.
